Data set [1] concerns the molecule itself. Put plainly: sedimentation of polymers.
The next data set has as its target T1, FtsZ^D212N (untagged) (E. coli, UniProt P0A9A6 1-383, D212N).
T1 sequence: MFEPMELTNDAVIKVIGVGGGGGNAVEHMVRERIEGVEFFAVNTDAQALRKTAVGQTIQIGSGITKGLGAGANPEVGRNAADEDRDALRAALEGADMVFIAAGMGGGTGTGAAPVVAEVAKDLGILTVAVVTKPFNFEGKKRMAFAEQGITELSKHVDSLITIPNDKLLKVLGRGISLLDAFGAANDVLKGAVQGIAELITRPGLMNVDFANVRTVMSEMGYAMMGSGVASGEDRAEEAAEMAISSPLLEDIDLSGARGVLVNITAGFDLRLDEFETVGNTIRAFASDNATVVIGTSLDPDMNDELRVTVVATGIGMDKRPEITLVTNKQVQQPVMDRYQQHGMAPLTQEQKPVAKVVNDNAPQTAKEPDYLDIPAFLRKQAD
In words: pull-down.

In data set [2] the target is T2, FtsZ (wild-type, untagged) (E. coli, UniProt P0A9A6 1-383).
T2 sequence: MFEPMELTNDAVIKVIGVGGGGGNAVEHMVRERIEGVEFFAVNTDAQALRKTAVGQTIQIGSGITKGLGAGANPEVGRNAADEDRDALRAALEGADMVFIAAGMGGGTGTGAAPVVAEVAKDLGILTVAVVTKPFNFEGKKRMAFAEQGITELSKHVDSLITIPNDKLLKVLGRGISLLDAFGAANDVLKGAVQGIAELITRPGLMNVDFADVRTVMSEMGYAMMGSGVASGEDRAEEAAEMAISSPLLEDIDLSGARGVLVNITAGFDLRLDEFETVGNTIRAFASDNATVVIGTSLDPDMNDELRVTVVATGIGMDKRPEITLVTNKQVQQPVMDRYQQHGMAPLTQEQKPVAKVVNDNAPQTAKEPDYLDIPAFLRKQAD
In words: co-sedimentation.

B1: FtsZ^F2A (untagged) (natural protein)
chain: MAEPMELTNDAVIKVIGVGGGGGNAVEHMVRERIEGVEFFAVNTDAQALRKTAVGQTIQIGSGITKGLGAGANPEVGRNAADEDRDALRAALEGADMVFIAAGMGGGTGTGAAPVVAEVAKDLGILTVAVVTKPFNFEGKKRMAFAEQGITELSKHVDSLITIPNDKLLKVLGRGISLLDAFGAANDVLKGAVQGIAELITRPGLMNVDFADVRTVMSEMGYAMMGSGVASGEDRAEEAAEMAISSPLLEDIDLSGARGVLVNITAGFDLRLDEFETVGNTIRAFASDNATVVIGTSLDPDMNDELRVTVVATGIGMDKRPEITLVTNKQVQQPVMDRYQQHGMAPLTQEQKPVAKVVNDNAPQTAKEPDYLDIPAFLRKQAD
B1: the binding result in data set [1] is given as “binds”.

B2: H-SUMO-ZapA (natural protein)
chain: MSAQPVDIQIFGRSLRVNCPPDQRDALNQAADDLNQRLQDLKERTRVTNTEQLVFIAALNISYELAQEKAKTRDYAASMEQRIRMLQQTIEQALLEQGRITEKTNQNFE
For B2, in the data set with FtsZ^D212N (untagged), the binding result was “binds”.

B3: ZapA (untagged) (natural protein)
chain: MSAQPVDIQIFGRSLRVNCPPDQRDALNQAADDLNQRLQDLKERTRVTNTEQLVFIAALNISYELAQEKAKTRDYAASMEQRIRMLQQTIEQALLEQGRITEKTNQNFE
As for B3, the binding result in data set [2] is “binds”.
